Laboratory results published in patent publication US8198236B2, “Methods and compositions for the treatment of cancer” (Washington University, priority 2007, dated 2012).
Each block holds one molecule with its values, some of them ahead of it.

What was measured:
LRP6 [1] = target: T1, LRP6 (Homo sapiens, UniProt O75581); assay: LRP6-mediated 125I-Mesd degradation in LRP6-transduced HT1080 cells; assay type: cell-based; conditions: 500 nM unlabeled competitor, 4 hours at 37° C.
T1 construct: expressed in transfected cells; host or cells: human HT1080 cells, retroviral vector pLNCX2
Procedure: Ligand degradation was performed using the methods as described in Li, Y., et al., J. Biol. Chem. 275: 17187-17194, 2000. Briefly, 2×10^5 cells were seeded into 12-well dishes 1 day prior to assay. Pre-warmed assay buffer (minimal Eagle's medium containing 0.6% BSA with radioligand, 0.6 ml/well) was added to cell monolayers in the absence or the presence of unlabeled 500 nM RAP or 500 nM Mesd, followed by incubation for 4 hours at 37° C. Thereafter, the medium overlying the cell monolayers was removed and proteins were precipitated by addition of BSA to 10 mg/ml and trichloroacetic acid to 20%. Degradation of radioligand was defined as the appearance of radioactive fragments in the overlying medium that were soluble in 20% trichloroacetic acid. Kinetic analysis of endocytosis LRP6-transduced HT1080 cells were plated in 12-well plates at a density of 2×10^5 cells/well and used after overnight culture. Cells were rinsed twice in ice-cold assay buffer (minimal Eagle's medium containing 0.6% BSA), and ^125I-anti-HA IgG was added at 1 nM final concentration in cold assay buffer (0.5 ml/well). The binding of ^125I-anti-HA IgG was carried out at 4° C. for 90 minutes with gentle rocking Unbound ^125I-anti-HA IgG was removed by washing cell monolayers three times with cold assay buffer. Ice-cold stop/strip solution (0.2 M acetic acid, pH 2.6, 0.1 M NaCl) was added to one set of plates without warming up and kept on ice. The remaining plates were then placed in a 37° C. water bath and 0.5 ml assay buffer prewarmed to 37° C. was quickly added to cell monolayers to initiate internalization. After each time point, the plates were quickly placed on ice and the assay buffer was replaced with cold stop/strip solution. ^125I-anti-HA IgG that remained on the cell surface was stripped by incubation of cell monolayers with cold stop/strip solution for a total of 20 minutes (0.75 ml for 10 minutes, twice) and counted. Cell monolayers were then solubilized with low-SDS lysis buffer and counted. […] The fraction of internalized ^125I-anti-HA IgG after each time point was calculated and plotted. […]

LRP6 [2] = target: T1, LRP6; assay: 125I-RAP binding to LRP6-transduced HT1080 cells; conditions: 125I-RAP 5 nM, 4 hours at 4° C.
Procedure: (§1) Cells (2×10^5) were seeded into 12-well dishes 1 day prior to assay. Ligand-binding buffer (minimal Eagle's medium containing 0.6% BSA with a different concentration of radioligand, 0.6 ml/well) was added to cell monolayers, in the absence or the presence of 500 nM unlabeled RAP or 500 nM unlabeled Mesd, followed with incubation for 0-4 hours at 4° C. Thereafter, overlying buffer containing unbound ligand was removed, and cell monolayers were washed and lysed in low-SDS lysis buffer (62.5 mM Tris-HCl pH 6.8, 0.2% SDS, 10% v/glycerol) and counted.
Receptor-associated protein (RAP) binds with high affinity to LRP, megalin, VLDLR and apoER2, and with a lower affinity to the LDLR (Bu, G., Int. Rev. Cytol. 209, 79-116. 2001). To determine whether RAP and Mesd bind to identical, overlapping, or different sites on the receptors, we performed binding and competition analysis of these two chaperones with HT1080 cells stably expressing LRP6.
In FIG. 8A, binding of ^125I-RAP (5 nM) to LRP6-transduced HT1080 cells and the control cells was carried out for 4 hours at 4° C. in the absence (total) or presence of 500 nM RAP, or 500 nM Mesd. In FIG. 8B, binding of^125I-Mesd (5 nM) to LRP6-transduced HT1080 cells was carried out for 2 hours at 4° C. in the absence (total) or presence of various concentrations of RAP or 500 nM Mesd. […]

LRP6 [3] = target: T1, LRP6; assay: Competition for 125I-Mesd binding to cell surface LRP6
Procedure: (§2) To examine whether Mesd binds with high affinity to most members of the LDLR family at the cell surface, we performed cell surface ligand binding experiments with cells stably transduced with LRP6 cDNA. Human HT1080 cells, which express undetectable levels of LRP6, were transduced with a viral vector alone (pLNCX2) or with vector containing LRP6 cDNA (Li, Y., Oncogene 23: 9129-9135, 2004) and used for ^125I-Mesd binding (FIG. 1A). ^125I-Mesd (5 nM) reached maximal binding after 2 hours incubation at 4° C. with LRP6-expressing HT1080 cells (FIG. 1A).
as §1
We performed binding of 5 nM ^125I-Mesd (5 nM) to cell surface LRP6 in the presence of various concentrations of excess unlabeled RAP or 500 nM unlabeled Mesd (FIG. 8B). RAP inhibited ^125I-Mesd binding in a dose-dependent manner with ˜60% inhibition achieved with 500 nM RAP, whereas the same concentration of unlabeled Mesd inhibited >90% of ^125I-Mesd binding (FIG. 8B). […] The lower affinity of RAP to cell surface LRP6 may also contribute to its lower efficiency in inhibition of Mesd binding.
In FIG. 8A, binding of ^125I-RAP (5 nM) to LRP6-transduced HT1080 cells and the control cells was carried out for 4 hours at 4° C. in the absence (total) or presence of 500 nM RAP, or 500 nM Mesd. In FIG. 8B, binding of^125I-Mesd (5 nM) to LRP6-transduced HT1080 cells was carried out for 2 hours at 4° C. in the absence (total) or presence of various concentrations of RAP or 500 nM Mesd. (C) LRP6-mediated ^125I-Mesd (5 nM) degradation was carried out for 4 hours at 37° C. in the absence or presence of 500 nM Mesd or 500 nM RAP. Values are the means of triple determinations with the s.d. indicated by error bars.
(§3) In order to investigate the binding of Mesd polypeptide and an Mesd oligopeptide to either LRP5 or LRP6, binding assays were performed using ^125I-Mesd or ^125I-DKK1 (FIG. 10).

LRP6 [4] = target: T1, LRP6; assay: 125I-DKK1 binding to LRP6; conditions: 500 nM unlabeled, 125I-DKK1 5 nM, 3 hours at 4° C.
Procedure: as §1
RAP is a receptor antagonist for members of the LDLR family, and is able to inhibit the binding of most known ligands of the LDLR family members. DKK1 is an LRP6-specific ligand and antagonist. […] In these experiments, Serum-free conditioned medium was harvested from HEK293 cells transiently transfected with cDNA for human Myc-DKK1 and allowed to bind to LRP6-transduced HT1080 cells (B,C) and control cells (A) in the absence (A,B) or presence (C) of 1 μM Mesd. Cell-surface-bound Myc-tagged DKK proteins were fixed and detected by immunofluorescence staining with anti-Myc antibody. (D) DKK1 binding to cell surface LRP6 is inhibited by Mesd. Binding of 125I-DKK1 (5 nM) to LRP6-transduced HT1080 cells or the control cells was carried out for 3 hours at 4° C. in the absence (total) or presence of 500 nM RAP or 500 nM Mesd. […]

LRP6 [5] = target: T1, LRP6; assay: LRP6-mediated 125I-DKK1 degradation in LRP6-transduced HT1080 cells; assay type: cell-based; conditions: 500 nM unlabeled, 4 hours at 37° C.
Procedure: Ligand degradation was performed using the methods as described in Li, Y., et al., J. Biol. Chem. 275: 17187-17194, 2000. Briefly, 2×10^5 cells were seeded into 12-well dishes 1 day prior to assay. Pre-warmed assay buffer (minimal Eagle's medium containing 0.6% BSA with radioligand, 0.6 ml/well) was added to cell monolayers in the absence or the presence of unlabeled 500 nM RAP or 500 nM Mesd, followed by incubation for 4 hours at 37° C. Thereafter, the medium overlying the cell monolayers was removed and proteins were precipitated by addition of BSA to 10 mg/ml and trichloroacetic acid to 20%. […] After each time point, the plates were quickly placed on ice and the assay buffer was replaced with cold stop/strip solution. ^125I-anti-HA IgG that remained on the cell surface was stripped by incubation of cell monolayers with cold stop/strip solution for a total of 20 minutes (0.75 ml for 10 minutes, twice) and counted. Cell monolayers were then solubilized with low-SDS lysis buffer and counted. […] The fraction of internalized ^125I-anti-HA IgG after each time point was calculated and plotted.
RAP is a receptor antagonist for members of the LDLR family, and is able to inhibit the binding of most known ligands of the LDLR family members. […] Cell-surface-bound Myc-tagged DKK proteins were fixed and detected by immunofluorescence staining with anti-Myc antibody. […]

LRP5 = LRP5 (Homo sapiens, UniProt O75197); assay: 125I-DKK1 binding to LRP5; conditions: FIG. 10B
Procedure: as §3

Wnt signaling = assay: TCF/LEF-luc reporter assay in Wnt-3A-treated HEK293 cells; assay type: cell-based; conditions: Wnt3A conditioned medium plus 500 nM, 16 hours at 37° C.
Procedure: HEK293 cells were plated into six-well plates. For each well, 0.1 μg of the TOP-FLASHTCF luciferase construct (Upstate Biotechnology) was cotransfected with 0.8 μg Mesd-expressing vector, 0.8 μg Mesd mutant-expressing vector, or empty vector. A β-galactosidase-expressing vector (Promega, Madison, Wis.) was included as an internal control for transfection efficiency. After 48 hours, cells were lysed and both luciferase and β-galactosidase activities were determined with enzyme assay kits (Promega). The luciferase activity was determined with a luminometer using the Dual Luciferase Assay system (Promega). Luciferase activity was normalized to the activity of the β-galactosidase.
In these experiments, transfected cells were treated without Wnt-3A or with Wnt-3A plus the indicated inhibitors (Mesd and/or Dkk1) for 16 hours at 37° C. Wnt signaling was measured by quantifying the luciferase activity using a live cell imaging system.

LRP6 [6] = target: T1, LRP6; assay: 125I-Mesd cell surface binding to LRP6-transduced HT1080 cells; conditions: LRP6-transduced HT1080 cells
Procedure: as §2
(A) Time course of ^125I-Mesd (5 nM) binding to LRP6-transduced HT1080 cells and the control cells. Assay was carried out for the indicated periods at 4° C. in the absence (total) or presence of 500 nM Mesd (non-specific). (B) Saturation binding of ^125I-Mesd to LRP6-transduced HT1080 cells and the control cells. Assay was carried out at indicated concentrations for 3 hours at 4° C. in the absence (total) or presence (non-specific) of 500 nM Mesd. (C) Scatchard plots of data in B. All values are the average of triple determinations with the s.d. indicated by error bars.
as §1
To analyze the Mesd sequences that are required for Mesd to bind to mature LRP6 at the cell surface with high affinity, sequences were compared between mouse Mesd and its homologs from different species. […] We thus generated two truncated Mesd mutants lacking either the N-terminal region, MESD (12-195), or both the N-terminal and C-terminal regions, Mesd (12-155) (FIG. 3A). The ability of these mutants to bind to cell surface LRP6 was then assessed.
In this example, a truncated Mesd mutant containing the last 45 amino acids of C-terminal region was generated (FIG. 3A) and its binding affinity for LRP6 was then analyzed. […] (A) Binding analyses of ^125I-Mesd and its mutant Mesd (150-195) (5 nM) to LRP6-transduced HT1080 cells and control cells. (B) Binding analyses of ^125I-Mesd and its mutant Mesd (150-195) (5 nM) to LRP6-transduced HT1080 cells. Assays were carried out for 3 hours at 4° C. in the absence or presence of 500 nM Mesd or its mutant. Values are the means of triple determinations with the s.d. indicated by error bars.
LRP6-mediated Mesd uptake and degradation was investigated in the experiments illustrated in FIG. 7. (A) LRP6-mediated ^125I-Mesd (5 nM) degradation in LRP6-transduced HT1080 cells and control cells was carried out for 4 hours at 37° C. in the absence or presence of 500 nM Mesd. (B) ^125I-Mesd (5 nM) binding to LRP6-transduced HT1080 cells and the control cells was carried out for 4 hours at 4° C. in the absence or presence of 500 nM Mesd. Values are the means of triple determinations with the s.d. indicated by error bars.

T1 sequence (O75581 20-1613): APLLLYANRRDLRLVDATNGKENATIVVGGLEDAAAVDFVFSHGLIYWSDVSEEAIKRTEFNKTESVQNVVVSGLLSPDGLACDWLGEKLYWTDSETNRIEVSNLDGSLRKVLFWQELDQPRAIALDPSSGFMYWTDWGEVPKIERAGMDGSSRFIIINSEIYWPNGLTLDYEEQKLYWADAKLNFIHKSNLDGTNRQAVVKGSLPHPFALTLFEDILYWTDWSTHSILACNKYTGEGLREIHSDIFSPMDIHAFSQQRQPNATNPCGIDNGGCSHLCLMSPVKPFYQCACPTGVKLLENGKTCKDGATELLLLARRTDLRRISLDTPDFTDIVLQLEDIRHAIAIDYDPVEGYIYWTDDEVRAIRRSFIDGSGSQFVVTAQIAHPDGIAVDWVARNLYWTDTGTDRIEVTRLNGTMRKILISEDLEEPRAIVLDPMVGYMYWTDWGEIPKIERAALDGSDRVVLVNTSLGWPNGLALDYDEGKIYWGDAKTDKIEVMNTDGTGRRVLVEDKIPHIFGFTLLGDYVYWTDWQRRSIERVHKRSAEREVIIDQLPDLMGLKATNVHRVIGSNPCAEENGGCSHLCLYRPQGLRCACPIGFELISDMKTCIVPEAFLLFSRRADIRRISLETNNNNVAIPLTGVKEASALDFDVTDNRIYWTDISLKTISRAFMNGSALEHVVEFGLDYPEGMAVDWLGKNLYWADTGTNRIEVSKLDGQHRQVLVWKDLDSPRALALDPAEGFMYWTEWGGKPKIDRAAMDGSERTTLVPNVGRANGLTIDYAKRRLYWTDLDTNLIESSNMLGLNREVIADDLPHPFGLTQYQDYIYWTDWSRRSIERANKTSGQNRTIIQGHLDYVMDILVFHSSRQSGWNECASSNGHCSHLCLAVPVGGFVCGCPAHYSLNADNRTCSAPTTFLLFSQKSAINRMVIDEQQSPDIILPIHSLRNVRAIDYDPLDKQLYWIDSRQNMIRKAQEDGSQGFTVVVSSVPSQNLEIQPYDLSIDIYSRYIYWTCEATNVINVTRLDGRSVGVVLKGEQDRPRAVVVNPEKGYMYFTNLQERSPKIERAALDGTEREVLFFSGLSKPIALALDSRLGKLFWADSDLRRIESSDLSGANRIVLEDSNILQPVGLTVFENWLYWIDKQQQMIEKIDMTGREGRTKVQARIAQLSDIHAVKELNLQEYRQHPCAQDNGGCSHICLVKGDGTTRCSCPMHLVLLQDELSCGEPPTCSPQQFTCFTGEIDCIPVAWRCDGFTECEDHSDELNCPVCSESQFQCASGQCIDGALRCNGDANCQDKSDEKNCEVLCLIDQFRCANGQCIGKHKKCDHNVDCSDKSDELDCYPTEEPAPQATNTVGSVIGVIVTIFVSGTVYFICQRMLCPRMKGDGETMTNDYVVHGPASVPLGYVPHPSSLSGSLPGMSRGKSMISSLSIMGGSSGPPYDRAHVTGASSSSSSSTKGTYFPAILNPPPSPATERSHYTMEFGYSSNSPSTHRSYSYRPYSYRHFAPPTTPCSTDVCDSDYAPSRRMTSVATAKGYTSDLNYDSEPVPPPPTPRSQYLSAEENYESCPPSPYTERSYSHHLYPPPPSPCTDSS
Sequence of LRP5 (O75197 32-1615): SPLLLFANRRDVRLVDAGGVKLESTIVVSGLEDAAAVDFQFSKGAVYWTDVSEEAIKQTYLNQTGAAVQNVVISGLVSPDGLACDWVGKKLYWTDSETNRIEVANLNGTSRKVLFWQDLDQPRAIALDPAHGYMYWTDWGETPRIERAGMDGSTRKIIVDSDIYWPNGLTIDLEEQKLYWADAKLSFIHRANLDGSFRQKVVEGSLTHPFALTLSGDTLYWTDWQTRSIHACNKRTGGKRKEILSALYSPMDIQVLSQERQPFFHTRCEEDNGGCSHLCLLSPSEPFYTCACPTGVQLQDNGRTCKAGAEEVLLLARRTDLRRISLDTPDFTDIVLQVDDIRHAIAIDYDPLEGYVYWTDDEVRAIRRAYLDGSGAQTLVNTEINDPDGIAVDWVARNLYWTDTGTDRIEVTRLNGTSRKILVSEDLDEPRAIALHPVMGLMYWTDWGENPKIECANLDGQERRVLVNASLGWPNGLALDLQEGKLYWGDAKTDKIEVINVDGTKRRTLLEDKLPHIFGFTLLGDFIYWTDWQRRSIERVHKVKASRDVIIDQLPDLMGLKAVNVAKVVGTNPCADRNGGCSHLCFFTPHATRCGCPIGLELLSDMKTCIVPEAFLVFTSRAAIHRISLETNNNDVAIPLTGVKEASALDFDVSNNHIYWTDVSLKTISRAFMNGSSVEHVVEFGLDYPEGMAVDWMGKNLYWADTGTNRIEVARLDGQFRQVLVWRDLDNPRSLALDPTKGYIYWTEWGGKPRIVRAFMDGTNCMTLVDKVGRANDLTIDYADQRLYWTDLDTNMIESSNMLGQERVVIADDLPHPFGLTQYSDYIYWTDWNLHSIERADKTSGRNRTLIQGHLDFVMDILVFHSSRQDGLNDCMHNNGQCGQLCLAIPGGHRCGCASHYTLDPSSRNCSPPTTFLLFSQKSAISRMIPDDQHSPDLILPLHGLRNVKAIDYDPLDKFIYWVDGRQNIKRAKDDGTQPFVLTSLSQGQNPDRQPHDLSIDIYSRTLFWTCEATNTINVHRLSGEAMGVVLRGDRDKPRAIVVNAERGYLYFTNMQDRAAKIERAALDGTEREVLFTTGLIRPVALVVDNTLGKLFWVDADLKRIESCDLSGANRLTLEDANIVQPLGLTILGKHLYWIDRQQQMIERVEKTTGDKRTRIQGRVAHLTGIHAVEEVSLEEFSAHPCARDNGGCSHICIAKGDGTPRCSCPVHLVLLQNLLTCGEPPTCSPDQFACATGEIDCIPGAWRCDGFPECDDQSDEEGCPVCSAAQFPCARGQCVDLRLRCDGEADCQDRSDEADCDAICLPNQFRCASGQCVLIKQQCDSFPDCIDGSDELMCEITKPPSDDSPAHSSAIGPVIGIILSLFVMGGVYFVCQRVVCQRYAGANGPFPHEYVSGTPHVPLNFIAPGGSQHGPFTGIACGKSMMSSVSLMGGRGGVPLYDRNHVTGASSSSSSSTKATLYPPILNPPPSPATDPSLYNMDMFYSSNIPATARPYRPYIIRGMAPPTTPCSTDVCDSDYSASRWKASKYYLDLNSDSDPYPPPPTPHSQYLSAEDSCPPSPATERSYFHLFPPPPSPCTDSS

Molecule: KGGGSKEKNKTKPEKAKKKEGDPKPRASKEDNRAGSR [SEQ ID NO: 20]
Reduction of binding of 125I-Mesd to LRP6 (LRP6 [3]; FIG. 10C, compared with LRP5): even greater reduction
Reduction in binding of 125I-DKK1 to LRP5 (LRP5): small but significant reduction

Molecule: KGGGSKEKNKTKPEKAKKKEGDRKPRASKEDNRAGSR [Mesd WT peptide]
Inhibition of Wnt signaling (luciferase activity) (Wnt signaling): moderately inhibit

Molecule: QMYPGKGGGSKEKNKTKPEKAKKKEGDPKPRASKEDNRAGSRREDL [Mesd (150-195)]
Binding of truncated Mesd mutants to cell surface LRP6 (LRP6 [6]): necessary and sufficient for LRP6 binding
Inhibition of Wnt signaling (luciferase activity) (Wnt signaling): moderately inhibit

Now from value to molecule:

Inhibition of 125I-Mesd degradation (LRP6 [1]): only partially
Increase of RAP binding in LRP6 expressing HT1080 cells compared to control cells (LRP6 [2]): ~20%
Inhibition of 125I-Mesd binding to cell surface LRP6 (LRP6 [3]; 500 nM unlabeled competitor, 125I-Mesd 5 nM, 2 hours at 4° C.): ~60%
Effect on increased 125I-DKK1 binding of LRP6-expressing HT1080 cells (LRP6 [4]): not
Effect on increased 125I-DKK1 degradation of LRP6-expressing HT1080 cells (LRP6 [5]): not
Molecule: RAP: Human recombinant 39 kDa receptor-associated protein, expressed in a GST expression vector [reference compound]

Binding of truncated Mesd mutants to cell surface LRP6 (LRP6 [6]): no effect on LRP6 binding
B1: MESD (12-195): Truncated mouse Mesd mutant lacking the N-terminal region (protein)
chain: RKKKDIRDYNDADMARLLEQWEKDDDIEEGDLPEHKRPSAPIDFSKLDPGKPESILKMTKKGKTLMMFVTVSGNPTEKETEEITSLWQGSLFNANYDVQRFIVGSDRAIFMLRDGSYAWEIKDFLVSQDRCAEVTLEGQMYPGKGGGSKEKNKTKPEKAKKKEGDRKPRASKEDNRAGSRREDL
modifications: left off: small tags and cut ends
notes: Truncated mouse Mesd mutant lacking the N-terminal region

Binding of truncated Mesd mutants to cell surface LRP6 (LRP6 [6]): completely abolished LRP6 binding
B2: Mesd (12-155): Truncated mouse Mesd mutant lacking both the N-terminal and C-terminal regions (protein)
chain: RKKKDIRDYNDADMARLLEQWEKDDDIEEGDLPEHKRPSAPIDFSKLDPGKPESILKMTKKGKTLMMFVTVSGNPTEKETEEITSLWQGSLFNANYDVQRFIVGSDRAIFMLRDGSYAWEIKDFLVSQDRCAEVTLEGQMYPGK
modifications: left off: small tags and cut ends
notes: Truncated mouse Mesd mutant lacking both the N-terminal and C-terminal regions
